Data from patent publication US7514215B2, “Sulfotransferase SULT2A1 sequence variants” (Mayo Foundation for Medical Education and Research, priority 2001, dated 2009).
Where two headings read alike, the source gives them in different places.

Test system: SULT2A1
Assay: SULT2A1 enzyme activity assay: sulfate conjugation of DHEA with 35S-PAPS, COS-1 cytosol preparations of recombinant allozymes
Type: biochemical, human
Conditions: for Enzyme Activity (%): percentage of WT SULT2A1 enzyme activity, 5 μM DHEA, 0.4 μM 35S-PAPS, COS-1 cytosol, corrected for transfection efficiency; for Enzyme activity: immunoreactive protein: ratio of enzymatic activity to immunoreactive protein; for decrease in enzyme activity: reduction relative to wild type
Experimental: Activity of SULT2A1 polypeptides can be altered relative to the reference SULT2A1 polypeptide. […] Other allozymes can have increased activity relative to the reference SULT2A1 polypeptide. Activity of SULT2A1 polypeptides can be assessed in vitro using a sulfate acceptor substrate such as DHEA and a donor sulfate molecule such as PAPS. In general, recombinant SULT2A1 polypeptides can be incubated at 37° C. with 0.4 μM ^35S-PAPS and 5 μM DHEA in a potassium phosphate buffer (5 mM, pH 6.5). Reactions can be stopped by precipitating PAPS and SULT2A1 polypeptide (e.g., with barium hydroxide, barium acetate, and zinc sulfate). After centrifugation of the reaction, radioactivity in the supernatant is assessed. SULT2A1 activity is expressed as nmoles of sulfate conjugated product formed per hour of incubation. See, Campbell, N. R. C. et al., Biochem. Pharmacol., 36:1435-1446 (1987).
COS-1 cell expression: Five different SULT2A1 expression constructs were made using the pCR3.1 expression vector. Four of the constructs were designed to express SULT2A1 allozymes, while the remaining construct was designed to express a wild type SULT2A1 polypeptide. All SULT2A1 cDNA sequences containing SULT2A1 nucleotide sequence variants used to create the expression constructs were created by site directed mutagenesis using the method described by Ho et al., Gene 77(1):51-9 (1989). Each SULT2A1 cDNA was amplified by PCR and subcloned into the eukaryotic expression vector pCR3.1 (Promega, Madison, Wis.). After subcloning, all inserts were sequenced to assure that no spurious nucleotide point mutations had been introduced during the PCR amplifications. […] As a control, a transfection was also performed with “empty” pCR3.1, i.e., vector lacking an insert, to make it possible to correct for endogenous COS-1 cell SULT activity. The control plasmid pSV-β-galactosidase (Promega) was cotransfected with each SULT2A1 construct to make it possible to correct for transfection efficiency. Two independent transfections, each consisting of three separate plates, were performed with each of the expression constructs.
After 48 hours in culture, the transfected cells were harvested and high speed supernatant (HSS) cytosol preparations were prepared as described by Wood, T. C. et al., Biochem. Biophys. Res. Commun., 198:1119-1127 (1994). Aliquots of these cytosol preparations were stored at −80° C. prior to assay.
Enzyme Assays: β-galactosidase activity in each of the COS-1 HSS preparations was measured with the β-galactosidase Enzyme Assay System (Promega, Madison, Wis.). These HSS preparations of recombinant SULT2A1 allozymes were used for the activity studies without any further purification. The protein concentration of each recombinant protein preparation was determined by the dye-binding method of Bradford with bovine serum albumin (BSA) as a standard.
SULT2A1 enzyme activity was measured with an assay that involves sulfate conjugation of a sulfate acceptor substrate, DHEA, in the presence of the sulfate donor 3′-phosphoadenosine-5′-phosphosulfate (PAPS). See, Campbell, N. R. C. et al., Biochem. Pharmacol., 36:1435-1446 (1987). Briefly, 0.4 μM ^35S-PAPS and a HSS preparation were reacted with 5 μM DHEA in 5 mM potassium phosphate buffer at pH 6.5. […] Cytosol from COS-1 cells that had been transfected with empty pCR3.1 was used to correct for endogenous SULT activity. Because SULTs display profound substrate inhibition, DHEA concentrations that ranged from 100 pM to 1 mM were tested with each recombinant allozyme to ensure that the assays were performed at DHEA concentrations that yielded maximal activity for that allozyme. Enzyme activity was expressed as nanomoles (nmoles) of sulfate conjugated product formed per hour of incubation. Apparent Km values for PAPS were determined in the presence of 5 μM DHEA with six PAPS concentrations that varied from 0.0625 μM to 2 μM. […]

[1] = apparent Km for DHEA, read-out: DHEA Km
[2] = apparent Km for PAPS in the presence of 5 μM DHEA, read-out: PAPS Km

| Molecule | activity relative to the reference SULT2A1 polypeptide (in words) | Km [1] [µM] | Km [2] [µM] | Enzyme Activity (%) | Enzyme activity: immunoreactive protein | decrease in enzyme activity [%] |
| --- | --- | --- | --- | --- | --- | --- |
| Ala63Pro: SULT2A1 allozyme having a proline at amino acid residue 63 in place of alanine (protein, UniProt Q06520 1-285, looked up, variant A63P) Sulfotransferase 2A1: MSDDFLWFEGIAFPTMGFRSETLRKVRDEFVIRDEDVIILTYPKSGTNWLAEILCLMHSKGDPKWIQSVPIWERSPWVESEIGYTALSETESPRLFSSHLPIQLFPKSFFSSKAKVIYLMRNPRDVLVSGYFFWKNMKFIKKPKSWEEYFEWFCQGTVLYGSWFDHIHGWMPMREEKNFLLLSYEELKQDTGRTIEKICQFLGKTLEPEELNLILKNSSFQSMKENKMSNYSLLSVDYVVDKAQLLRKGVSGDWKNHFTVAQAEDFDKLFQEKMADLPRELFPWE | reduced activity | 0.21 ± 0.01 | 0.0082 ± 0.00132 | 57 | 2.1 | 43 |
| 63Pro/261Thr: SULT2A1 polypeptide with a proline at position 63 and a threonine at position 261 (double variant) (protein, UniProt Q06520 1-285, looked up, variant A63P A261T) Sulfotransferase 2A1: MSDDFLWFEGIAFPTMGFRSETLRKVRDEFVIRDEDVIILTYPKSGTNWLAEILCLMHSKGDPKWIQSVPIWERSPWVESEIGYTALSETESPRLFSSHLPIQLFPKSFFSSKAKVIYLMRNPRDVLVSGYFFWKNMKFIKKPKSWEEYFEWFCQGTVLYGSWFDHIHGWMPMREEKNFLLLSYEELKQDTGRTIEKICQFLGKTLEPEELNLILKNSSFQSMKENKMSNYSLLSVDYVVDKAQLLRKGVSGDWKNHFTVTQAEDFDKLFQEKMADLPRELFPWE | reduced activity | 0.29 ± 0.012 | 0.0114 ± 0.0003 | 42 | 1.6 |  |
| Ala261Thr: SULT2A1 allozyme having a threonine at amino acid 261 in place of an alanine (protein) MSDDFLWFEGIAFPTMGFRSETLRKVRDEFVIRDEDVIILTYPKSGTNWLAEILCLMHSKGDAKWIQSVPIWERSPWVESEIGYTALSESESPRLFSSHLPIQLFPKSFFSSKAKVIYLMRNPRDVLVSGYFFWKNMKFIKKPKSWEEYFEWFCQGTVLYGSWFDHIHGWMPMREEKNFLLLSYEELKQDTGRTIEKICQFLGKTLEPEELNLILKNSSFQSMKENKMSNYSLLSVDYVVDKAQLLRKGVSGDWKNHFTVTQAEDFDKLFQEKMADLPRELFPWE | comparable to the reference SULT2A1 polypeptide | 0.245 ± 0.012 | 0.0227 ± 0.00062 |  | 1.2 | 85 |
| Lys227Glu: SULT2A1 allozyme having a glutamate at amino acid residue 227 in place of a lysine (protein, UniProt Q06520 1-285, looked up, variant K227E) Sulfotransferase 2A1: MSDDFLWFEGIAFPTMGFRSETLRKVRDEFVIRDEDVIILTYPKSGTNWLAEILCLMHSKGDAKWIQSVPIWERSPWVESEIGYTALSETESPRLFSSHLPIQLFPKSFFSSKAKVIYLMRNPRDVLVSGYFFWKNMKFIKKPKSWEEYFEWFCQGTVLYGSWFDHIHGWMPMREEKNFLLLSYEELKQDTGRTIEKICQFLGKTLEPEELNLILKNSSFQSMKENEMSNYSLLSVDYVVDKAQLLRKGVSGDWKNHFTVAQAEDFDKLFQEKMADLPRELFPWE | reduced activity | 0.905 ± 0.053 | 0.0102 ± 0.00096 | 15 | 7.5 |  |
| WT: recombinant wild type (reference) human SULT2A1 polypeptide, SEQ ID NO:3, expressed in COS-1 cells (protein, listed as Homo Sapiens) MSDDFLWFEGIAFPTMGFRSETLRKVRDEFVIRDEDVIILTYPKSGTNWLAEILCLMHSKGDAKWIQSVPIWERSPWVESEIGYTALSESESPRLFSSHLPIQLFPKSFFSSKAKVIYLMRNPRDVLVSGYFFWKNMKFIKKPKSWEEYFEWFCQGTVLYGSWFDHIHGWMPMREEKNFLLLSYEELKQDTGRTIEKICQFLGKTLEPEELNLILKNSSFQSMKENKMSNYSLLSVDYVVDKAQLLRKGVSGDWKNHFTVAQAEDFDKLFQEKMADLPRELFPWE |  | 0.247 ± 0.071 | 0.0218 ± 0.00086 | 100 | 1.0 |  |
